According to patent US20230346885A1 (published 2023):
Substitutions are numbered along the chain they refer to.

Tests used:
Assay in all cases: binding, other
LGSN peptide on HLA = molecular target: T1, LGSN peptide on HLA (human)
T1 peptide: ALGETFIRYFV

PAEP peptide on HLA [1] = molecular target: T2, PAEP peptide on HLA (human)
T2 peptide: TLLDTDYDNFL

PAEP peptide on HLA [2] = molecular target: T3, PAEP peptide on HLA (human)
T3 peptide: LLDTDYDNFL

KLK4 peptide on HLA = molecular target: T4, KLK4 peptide on HLA (human)
T4 peptide: SIASQCPTA

BRDT peptide on HLA = molecular target: T5, BRDT peptide on HLA (human)
T5 peptide: RLLDVNNQL

NPSR1 peptide on HLA = molecular target: T6, NPSR1 peptide on HLA (human)
T6 peptide: AINPLIYCV

ASCL2 peptide on HLA = molecular target: T7, ASCL2 peptide on HLA (human)
T7 peptide: ALSPAERELL

PAEP peptide on HLA [3] = molecular target: T8, PAEP peptide on HLA (human)
T8 peptide: MMCQYLARV

PIWIL1 peptide on HLA = molecular target: T9, PIWIL1 peptide on HLA (human)
T9 peptide: SLSNRLYYL

B1: TCR of SEQ ID NOs 417 and 418 (TCR, V domains shown)
Valpha: KQEVTQIPAALSVPEGENLVLNCSFTDSAIYNLQWFRQDPGKGLTSLLLIQSSQREQTSGRLNASLDKSSGRSTLYIAASQPGDSATYLCAVRAQGGSEKLVFGKGTKLTVNP
Vbeta: NAGVTQTPKFRILKIGQSMTLQCTQDMNHNYMYWYRQDPGMGLKLIYYSVGAGITDKGEVPNGYNVSRSTTEDFPLRLELAAPSQTSVYFCASSYLGQDPEGAEAFFGQGTRLTVV
B1: recognises (LGSN peptide on HLA).

B2: TCR of SEQ ID NOs 481 and 482 (TCR, V domains shown)
Valpha: KQEVTQIPAALSVPEGENLVLNCSFTDSAIYNLQWFRQDPGKGLTSLLLIQSSQREQTSGRLNASLDKSSGRSTLYIAASQPGDSATYLCAATDSWGKLQFGAGTQVVVTP
Vbeta: DTGVSQNPRHKITKRGQNVTFRCDPISEHNRLYWYRQTLGQGPEFLTYFRNEAQLEKSRLLSDRFSAERPKGSFSTLEIQRTEQGDSAMYLCASSLFSRGTNYGYTFGSGTRLTVV
B2: recognises (PAEP peptide on HLA [1]).

B3: TCR of SEQ ID NOs 471 and 472 (TCR, V domains shown)
Valpha: KQEVTQIPAALSVPEGENLVLNCSFTDSAIYNLQWFRQDPGKGLTSLLLIQSSQREQTSGRLNASLDKSSGRSTLYIAASQPGDSATYLCAVSPINDYKLSFGAGTTVTVRA
Vbeta: KAGVTQTPRYLIKTRGQQVTLSCSPISGHRSVSWYQQTPGQGLQFLFEYFSETQRNKGNFPGRFSGRQFSNSRSEMNVSTLELGDSALYLCASSLVGTGGSPLHFGNGTRLTVT
B3: recognises (PAEP peptide on HLA [2]).

B4: TCR of SEQ ID NOs 401 and 402 (TCR, V domains shown)
Valpha: KQEVTQIPAALSVPEGENLVLNCSFTDSAIYNLQWFRQDPGKGLTSLLLIQSSQREQTSGRLNASLDKSSGRSTLYIAASQPGDSATYLCAVSPPAAGNKLTFGGGTRVLVKP
Vbeta: NAGVTQTPKFRILKIGQSMTLQCAQDMNHNYMYWYRQDPGMGLKLIYYSVGAGITDKGEVPNGYNVSRSTTEDFPLRLELAAPSQTSVYFCASSLTWTGGFGYTFGSGTRLTVV
B4: recognises (KLK4 peptide on HLA).

B5: TCR of SEQ ID NOs 319 and 320 (TCR, V domains shown)
Valpha: KQEVTQIPVALSVPEGENLVLNCSFTDSAIYNLQWFRQDPGKGLTSLLLIQSSQREQTSGRLNASLDKSSGRSTLYIAASQPGDSATYLCAVKGGANNLFFGTGTRLTVIP
Vbeta: NAGVTQTPKFRILKIGQSMTLQCTQDMNHNYMYWYRQDPGMGLKLIYYSVGAGITDKGEVPNGYNVSRSTTEDFPLRLLSAAPSQTSVYFCASRGDGDRSPLHFGNGTRLTVT
B5: recognises (BRDT peptide on HLA).

B6: TCR of SEQ ID NOs 321 and 322 (TCR, V domains shown)
Valpha: B5 Valpha with V9A, K93R, A96Y, N97Q, N98K, L99V, F100T, R106K, T108Q
Vbeta: B5 Vbeta with R11Q, I12V, I15T, T24A, Y31S, K44R, Y47H, K57Q
B6: recognises (BRDT peptide on HLA).

B7: TCR of SEQ ID NOs 403 and 404 (TCR, V domains shown)
Valpha: KQEVTQIPAALSVPEGENLVLNCSFTDSAIYNLQWFRQDPGKGLTSLLLIQSSQREQTSGRLNASLDKSSGRSTLYIAASQPGDSATYLCAVRPRGDSWGKLQFGAGTQVVVTP
Vbeta: NAGVTQTPKFQVLKTGQSMTLQCAQDMNHEYMSWYRQDPGMGLRLIHYSVGAGITDQGEVPNGYNVSRSTTEDFPLRLLSAAPSQTSVYFCASSPTGYGEAFFGQGTRLTVV
B7: recognises (KLK4 peptide on HLA).

B8: TCR of SEQ ID NOs 441 and 442 (TCR, V domains shown)
Valpha: QKEVEQNSGPLSVPEGAIASLNCTYSDRGSQSFFWYRQYSGKSPELIMSIYSNGDKEDGRFTAQLNKASQYVSLLIRDSQPSDSATYLCAVNDSGGYQKVTFGTGTKLQVIP
Vbeta: B7 Vbeta with P95Y, T96S, G97P, Y98G, G99N, E100G, A101Y, F102T, Q105S
B8: recognises (NPSR1 peptide on HLA).

B9: TCR of SEQ ID NOs 301 and 302 (TCR, V domains shown)
Valpha: QKEVEQNSGPLSVPEGAIASLNCTYSDRGSQSFFWYRQYSGKSPELIMSIYSNGDKEDGRFTAQLNKASQYVSLLIRDSQPSDSATYLCAVDTGRRALTFGSGTRLQVQP
Vbeta: NAGVTQTPKFQVLKTGQSMTLQCAQDMNHNSMYWYRQDPGMGLRLIYYSASEGTTDKGEVPNGYNVSRLNKREFSLRLESAAPSQTSVYFCASSTGGSYGYTFGSGTRLTVV
B9: recognises (ASCL2 peptide on HLA).

B10: TCR of SEQ ID NOs 469 and 470 (TCR, V domains shown)
Valpha: B9 Valpha with D92R, T93R, G94N, R95T, R96D, A97K, T99I, S102T, Q109F
Vbeta: DTGVSQNPRHKITKRGQNVTFRCDPISEHNRLYWYRQTLGQGPEFLTYFQNEAQLEKSRLLSDRFSAERPKGSFSTLEIQRTEQGDSAMYLCASSPRDRSPYGYTFGSGTRLTVV
B10: recognises (PAEP peptide on HLA [2]).

B11: TCR of SEQ ID NOs 477 and 478 (TCR, V domains shown)
Valpha: B9 Valpha with D92S, T93G, G94S, R95A, A97Q, R105Q, Q107T, Q109L
Vbeta: DGGITQSPKYLFRKEGQNVTLSCEQNLNHDAMYWYRQDPGQGLRLIYYSQIVNDFQKGDIAEGYSVSREKKESFPLTVTSAQKNPTAFYLCASSPFADDSYGYTFGSGTRLTVV
B11: recognises (PAEP peptide on HLA [3]).

B12: TCR of SEQ ID NOs 437 and 438 (TCR, V domains shown)
Valpha: B9 Valpha with D92G, T93G, R95A, R96D, A97G, S102K, R105H, Q107I, V108I
Vbeta: NAGVTQTPKFRILKIGQSMTLQCTQDMNHNYMYWYRQDPGMGLKLIYYSVGAGITDKGEVPNGYNVSRSTTEDFPLRLELAAPSQTSVYFCASSYGNLGTEAFFGQGTRLTVV
B12: recognises (NPSR1 peptide on HLA).

B13: TCR of SEQ ID NOs 497 and 498 (TCR, V domains shown)
Valpha: KQEVTQIPAALSVPEGENLVLNCSFTDSAIYNLQWFRQDPGKGLTSLLLIQSSQREQTSGRLNASLDKSSGRSTLYIAASQPGDSATYLCAARYNFNKFYFGSGTKLNVKP
Vbeta: NAGVTQTPKFQVLKTGQSMTLLCAQDMNHEYMYWYRQDPGMGLRLIHYSVGEGTTAKGEVPDGYNVSRSTTEDFPLRLLSAAPSQTSVYFCASSYTPGPSHEQYFGPGTRLTVT
B13: recognises (PIWIL1 peptide on HLA).

B14: TCR of SEQ ID NOs 415 and 416 (TCR, V domains shown)
Valpha: KQEVTQIPAALSVPEGENLVLNCSFTDSAIYNLQWFRQDPGKGLTSLLLIQSSQREQTSGRLNASLDKSSGRSTLYIAASQPGDSATYLCAVRGYQKVTFGTGTKLQVIP
Vbeta: NAGVTQTPKFQVLKTGQSMTLQCAQDMNHEYMSWYRQDPGMGLRLIHYSVGAGITDQGEVPNGYNVSRSTTEDFPLRLLSAAPSQTSVYFCASSPGIGELFFGEGSRLTVL
B14: recognises (LGSN peptide on HLA).

B15: TCR of SEQ ID NOs 475 and 476 (TCR, V domains shown)
Valpha: QKEVEQNSGPLSVPEGAIASLNCTYSDRGSQSFFWYRQYSGKSPELIMFIYSNGDKEDGRFTAQLNKASQYVSLLIRDSQPSDSATYLCAVDGSYIPTFGRGTSLIVHP
Vbeta: NAGVTQTPKFRVLKTGQSMTLLCAQDMNHEYMYWYRQDPGMGLRLIHYSVGEGTTAKGEVPDGYNVSRLKKQNFLLGLESAAPSQTSVYFCASSSGGADTGELFFGEGSRLTVL
B15: recognises (PAEP peptide on HLA [3]).

B16: TCR of SEQ ID NOs 483 and 484 (TCR, V domains shown)
Valpha: ELKVEQNPLFLSMQEGKNYTIYCNYSTTSDRLYWYRQDPGKSLESLFVLLSNGAVKQEGRLMASLDTKARLSTLHITAAVHDLSATYFCAVGAYSGAGSYQLTFGKGTKLSVIP
Vbeta: NAGVIQNPRHLVRRRGQEARLRCSPMKGHSHVYWYRQLPEEGLKFMVYLQKENIIDESGMPKERFSAEFPKEGPSILRIQQVVRGDSAAYFCASSKYPAGEANEKLFFGSGTQLSVL
B16: recognises (PAEP peptide on HLA [1]).
